T1: C. elegans SUR-8 deletion mutant lacking the N-terminal 88 amino acid non-LRR region (C. elegans, UniProt Q22875 89-559)
T1 construct: Range 89-559 is worked out from 'deletion of the N-terminal 88 amino acid' and the printed length of 559
T1 sequence: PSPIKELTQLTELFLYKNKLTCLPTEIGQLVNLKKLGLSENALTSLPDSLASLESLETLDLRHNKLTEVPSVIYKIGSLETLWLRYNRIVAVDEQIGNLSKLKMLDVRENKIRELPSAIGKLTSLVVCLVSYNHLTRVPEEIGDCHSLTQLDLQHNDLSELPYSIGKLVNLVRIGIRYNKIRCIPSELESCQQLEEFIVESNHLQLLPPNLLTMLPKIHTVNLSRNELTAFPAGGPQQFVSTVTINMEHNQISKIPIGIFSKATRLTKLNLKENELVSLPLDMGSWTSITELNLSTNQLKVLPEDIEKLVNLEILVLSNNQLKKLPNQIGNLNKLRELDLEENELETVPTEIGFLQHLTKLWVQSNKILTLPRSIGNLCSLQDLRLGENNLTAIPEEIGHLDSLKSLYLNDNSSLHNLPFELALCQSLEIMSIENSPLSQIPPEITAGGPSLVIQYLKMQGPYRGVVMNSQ

T2: C. elegans SUR-8 ku242 C233Y (yeast two-hybrid fusion) (C. elegans, UniProt Q22875 1-559)
T2 sequence: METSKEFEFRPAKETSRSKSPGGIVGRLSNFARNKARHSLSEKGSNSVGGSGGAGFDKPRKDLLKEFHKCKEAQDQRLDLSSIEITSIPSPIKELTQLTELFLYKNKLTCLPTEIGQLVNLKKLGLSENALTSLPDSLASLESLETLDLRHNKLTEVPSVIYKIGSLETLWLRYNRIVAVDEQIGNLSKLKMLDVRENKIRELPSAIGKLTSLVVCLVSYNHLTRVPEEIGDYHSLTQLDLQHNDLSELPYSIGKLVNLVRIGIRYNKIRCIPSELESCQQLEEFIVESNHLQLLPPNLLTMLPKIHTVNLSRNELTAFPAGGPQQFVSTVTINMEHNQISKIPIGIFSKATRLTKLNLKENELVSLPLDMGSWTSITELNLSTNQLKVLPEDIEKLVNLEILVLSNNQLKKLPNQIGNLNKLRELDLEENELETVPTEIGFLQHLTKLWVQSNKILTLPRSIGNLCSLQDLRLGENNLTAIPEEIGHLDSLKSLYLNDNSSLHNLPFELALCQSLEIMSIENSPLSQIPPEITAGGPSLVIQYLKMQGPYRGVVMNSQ

T3: wild type LIN-45 Raf (yeast two-hybrid fusion) (C. elegans, UniProt Q07292 1-813)
T3 construct: Tested against SUR-8 and against LET-60 Ras and its mutants; The constructs for the two tests may differ; not shown: two-hybrid fusion partner
T3 sequence (looked up): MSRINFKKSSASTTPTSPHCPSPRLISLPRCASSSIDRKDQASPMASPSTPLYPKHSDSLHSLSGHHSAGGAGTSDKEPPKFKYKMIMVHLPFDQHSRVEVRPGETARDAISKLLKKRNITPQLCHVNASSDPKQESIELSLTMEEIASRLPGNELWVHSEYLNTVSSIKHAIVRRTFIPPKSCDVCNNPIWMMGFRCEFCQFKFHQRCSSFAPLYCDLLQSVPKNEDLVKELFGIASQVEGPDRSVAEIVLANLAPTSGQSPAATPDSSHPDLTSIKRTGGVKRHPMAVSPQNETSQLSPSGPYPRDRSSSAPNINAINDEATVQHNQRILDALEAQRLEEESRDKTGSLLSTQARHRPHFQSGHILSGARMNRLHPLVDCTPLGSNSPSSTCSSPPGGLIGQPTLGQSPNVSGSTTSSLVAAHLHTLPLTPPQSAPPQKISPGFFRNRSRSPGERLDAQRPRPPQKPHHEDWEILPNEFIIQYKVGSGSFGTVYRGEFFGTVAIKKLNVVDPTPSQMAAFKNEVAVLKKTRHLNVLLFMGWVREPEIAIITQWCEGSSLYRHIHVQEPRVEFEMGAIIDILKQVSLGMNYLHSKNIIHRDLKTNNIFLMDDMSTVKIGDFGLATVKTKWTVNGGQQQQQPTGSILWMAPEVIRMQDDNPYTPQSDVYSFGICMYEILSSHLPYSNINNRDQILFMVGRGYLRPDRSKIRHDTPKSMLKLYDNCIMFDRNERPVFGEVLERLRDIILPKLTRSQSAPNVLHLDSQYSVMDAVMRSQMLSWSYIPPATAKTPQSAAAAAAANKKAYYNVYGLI

B1: wild type LET-60 Ras fused to the GAL4 DNA binding domain (enzyme, UniProt P04386 1-147, looked up)
chain: MKLLSSIEQACDICRLKKLKCSKEKPKCAKCLKNNWECRYSPKTKRSPLTRAHLTEVESRLERLEQLFLLIFPREDLDMILKMDSLQDIKALLTGLFVQDNVNKDAVTDRLASVETDMPLTLRQHRISATSSSEESSNKGQRQLTVSMTEYKLVVVGDGGVGKSALTIQLIQNHFVEEYDPTIEDSYRKQVVIDGETCLLDILDTAGQEEYSAMRDQYMRTGEGFLLVFAVNEAKSFENVANYREQIRRVKDSDDVPMVLVGNKCDLSSRSVDFRTVSETAKGYGIPNVDTSAKTRMGVDEAFYTLVREIRKHRERHDNNKPQKKKKCQIM
B2: C. elegans SUR-8 fused to the GAL4 activation domain (other, not shown: large carriers)
chain: T2 sequence with Y233C
notes: Yeast two-hybrid construct: 1.7 kb sur-8 cDNA cloned in-frame into pACT2; also called Ce SUR-8; wild-type SUR-8
B3: MPK-1 MAP kinase (yeast two-hybrid fusion) (enzyme, C. elegans, UniProt P39745-2 1-376, looked up)
chain: MADGEAVISTVNNVEEVHGQLFEVAPRYVNLSYIGEGAYGMVASALDTITRDRVAIKKISPFEHQTFCQRTLREIKILNRFKHENIINIQEIIRSETVDSLKDIYIVQCLMETDLYKLLKTQKLSNDHVCYFLYQILRGLKYIHSANVLHRDLKPSNLLLNTTCDLKICDFGLARVTDPQTDHTGFLTEYVATRWYRAPEIMLNSKGYTKSIDVWSVGCILAEMLSNRPLFPGKHYLDQLNLILAVVGSPSNADLQCIINDKARSYLISLPHKPKQPWARLYPGADPRALDLLDKMLTFNPHNRIDIEQALAHPYLEQYYDPGDEPVCEEPFTLEMEFDDLPKEKLKELIWEEAEAHHRRMEAEAAARNNGGQNPV
notes: not shown: two-hybrid fusion partner
B4: MEK-2 MEK (yeast two-hybrid fusion) (enzyme, C. elegans, UniProt Q10664 1-387, looked up)
chain: MSSGKRRNPLGLSLPPTVNEQSESGEATAEEATATVPLEEQLKKLGLTEPQTQRLSEFLQVKEGIKELSEDMLQTEGELGHGNGGVVNKCVHRKTGVIMARKLVHLEIKPSVRQQIVKELAVLHKCNSPFIVGFYGAFVDNNDISICMEYMDGLSLDIVLKKVGRLPEKFVGRISVAVVRGLTYLKDEIKILHRDVKPSNMLVNSNGEIKLCDFGVSGMLIDSMANSFVGTRSYMAPERLTGSHYTISSDIWSFGLSLVELLIGRYPVPAPSQAEYATMFNVAENEIELADSLEEPNYHPPSNPASMAIFEMLDYIVNGPPPTLPKRFFTDEVIGFVSKCLRKLPSERATLKSLTADVFFTQYADHDDQGEFAVFVKGTINLPKLNP
notes: as for B3

The target of test [1] is T1, C. elegans SUR-8 deletion mutant …. Nature of the test: yeast two-hybrid.
Test [2] deals with T2, C. elegans SUR-8 ku242 C233Y (yeast …). Put plainly: yeast two-hybrid.
In test [3] the target is T3, wild type LIN-45 Raf (yeast two-hybrid …). Put plainly: yeast two-hybrid.
In test [4] the target is B2. Put plainly: yeast two-hybrid, His and LacZ reporters.

Here are results for four molecules from patent US6506889 (UNIVERSITY TECHNOLOGY, dated 2003).

Where a chain is given by its changes, count along the chain named.

In the case of B1, the binding result in test [1] and in test [2] was “no binding” each time.
As to B2, the binding result in test [3] is “no binding”.
Consider B3, for which the binding result in test [4] is “no binding”.
On the same count and under the same terms, next, B4: “no binding”.
